Our source for the protein stability index values is the supplement of paper PMC10724198.

± gives the standard deviation of the averaged measurements.
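Also: PSI is a weighted mean of sequencing reads over stability bins, variants kept only with over 10 reads, mCherry proximal and sfGFP distal, peptide attached via GGGS linker.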

The subject of this data set is Saccharomyces cerevisiae. In words: protein stability index of tFT-peptide fusion (C-terminal peptide) (PSI (0-1 scale)); higher = more stable (slower turnover). The settings on record: genetic background: wild type; temperature: 30 C.
As to QGKRRREDGIGG, the protein stability index stood at 0.711 ± 0.072.
For the sequence QGQAEREAERRS, the protein stability index was determined as 0.6732 ± 0.0059.
Sequence QGWDGSRRRPGL yielded a protein stability index of 0.706 ± 0.031.
Next, QGYWVKAVCASH: 0.624 ± 0.023; QIKGNNLNIDKG: 0.6721 ± 0.0031.
To QIQRLGGGGHCG belongs 0.762 ± 0.1.
Turning to QISLPDASLPPS, the protein stability index was 0.67 ± 0.079.
To QIYHIANPKILN belongs 0.696 ± 0.055.
In turn, QKDLDGSLANST showed a protein stability index of 0.692 ± 0.025.
To QKHAAFLKRSRE belongs 0.68 ± 0.024; to QKIIEDNQNTGR, 0.663 ± 0.016.
With QKKKKNNKRQKQ, the protein stability index came to 0.588 ± 0.023.
As to QKKKVKETRNER, the protein stability index amounted to 0.672 ± 0.034.
Consider QKKNSPIPTNKN, for which the protein stability index was found to be 0.695 ± 0.04.
QKKSGKNGIRPK: the protein stability index worked out at 0.701 ± 0.065.
In the case of QKNKKRQTTYES, the protein stability index turned out to be 0.662 ± 0.0069.
QKNWWLETVLRG displayed a protein stability index of 0.72 ± 0.023.
The sequence QMKDGKTQKWQE came in with a protein stability index of 0.569 ± 0.048.
To QNKKEKRHKTKT belongs 0.648 ± 0.02.
Turning to QPGRGIAFVCFD, the protein stability index stood at 0.735 ± 0.051.
Next, QPHPPRAVLTGP: 0.6975 ± 0.005; QPLTYHPLLRRP: 0.715 ± 0.051; QPPSCTSRPPYR: 0.718 ± 0.096.
Next, QPRLLGPDRIDL: 0.662 ± 0.036; QPTPRPSPRPAC: 0.672 ± 0.025.
As to QQISQIFHKQGK, the protein stability index worked out at 0.851 ± 0.13.
Sequence QQTSGVQERICL had a protein stability index of 0.744 ± 0.07.
For the sequence QREGPEKRTHGR, the protein stability index came out at 0.709 ± 0.038.
QRGGVGWILGGV came in with a protein stability index of 0.675 ± 0.034.
As to QRGRGGRHVTDI, the protein stability index is 0.71 ± 0.069.
Next, QRKGNLTKTEPV: 0.676 ± 0.1.
As to QRKLTFIKRYRV, the protein stability index came out at 0.67 ± 0.041.
To QRTQRGKQPGQR belongs 0.679 ± 0.08; to QSHALSLRKGMP, 0.681 ± 0.052; to QSLPLSAPAPAC, 0.697 ± 0.037.
For QSPTFLTPLALA, the protein stability index is 0.653 ± 0.039.
As for QSTRPHSHGCLG, the protein stability index was determined as 0.748 ± 0.051.
Next, QTGGPDPSGPPK: 0.693 ± 0.03.
Next, QTIKKKKKDKKN: 0.764 ± 0.011; QTNIGRKRTLPR: 0.718 ± 0.013; QTQNEENKKQKY: 0.612 ± 0.13.
Sequence QTVKNYTSQSKR had a protein stability index of 0.666 ± 0.018.
In turn, QTWVQIGIRITL showed a protein stability index of 0.44 ± 0.087.
Regarding QVGGVRSRGAAG, the protein stability index came out at 0.664 ± 0.017.
To QVGSLEIFLCFI belongs 0.6323 ± 0.0016; to QVKVGQTEMAYN, 0.78 ± 0.22.
For QVLIKKRNIKKK, the protein stability index amounted to 0.651 ± 0.076.
In the case of QVNSAHKRTGSG, the protein stability index came to 0.668 ± 0.061.
Regarding QVVIGRLSSQVG, the protein stability index is 0.664 ± 0.038.
For QWFTCLFYFRSP, the protein stability index is 0.5697 ± 0.0029.
With QYGMSSQGGGHN, the protein stability index amounted to 0.7312 ± 0.0017.
Regarding QYKEFYYQNNRR, the protein stability index came out at 0.562 ± 0.062.
QYMDQIKGRSGT registered a protein stability index of 0.723 ± 0.0079.
RAADGWGVLCGV yielded a protein stability index of 0.679 ± 0.095.
Consider RAAREASQDIPN, for which the protein stability index amounted to 0.753 ± 0.12.
Next, RACVCPCHPHRY: 0.737 ± 0.025; RAGFSEPCGSFS: 0.668 ± 0.046; RAGGGAWAGGVA: 0.7085 ± 0.0024.
Next, RAGSLTSGVCGP: 0.663 ± 0.015; RAIPRPLPPRRI: 0.7164 ± 0.0029.
To RAIPTWPIGDRR belongs 0.655 ± 0.029; to RALGVPPLSHLP, 0.656 ± 0.036.
Sequence RALLGSVVCSYG displayed a protein stability index of 0.6268 ± 0.0016.
RALPSPPPCPPG gave a protein stability index of 0.524 ± 0.031.
To RAPCSLDFRGNA belongs 0.758 ± 0.12.
For RAPNSVPSIKKP, the protein stability index was 0.68 ± 0.098.
RAPPRLHPPFPP returned a protein stability index of 0.676 ± 0.11.
RAPSLLRPRSPP displayed a protein stability index of 0.658 ± 0.12.
To RAPTRDQCPCPG belongs 0.68 ± 0.035; to RARFSASCRYRV, 0.671 ± 0.048; to RARYGPSYTLPL, 0.642 ± 0.027.
The sequence RASAHLVAIVRY registered a protein stability index of 0.642 ± 0.02.
Turning to RASLPKSLPVSY, the protein stability index came out at 0.604 ± 0.07.
The sequence RASRGLGWRRND gave a protein stability index of 0.66 ± 0.015.
On to RATRLFPPPHFS, for which the protein stability index was found to be 0.7 ± 0.037.
The sequence RAVFNMSSPSHI showed a protein stability index of 0.711 ± 0.077.
To RCCGGSEVVRAG belongs 0.705 ± 0.014; to RCGGGKWWRGAE, 0.6566 ± 0.0035; to RCGSWKGVRGVM, 0.693 ± 0.032.
For RCLPSASYPACS, the protein stability index was 0.691 ± 0.074.
As for RCRLGDFLLSFI, the protein stability index stood at 0.63 ± 0.034.
To RCVGVTNESTGT belongs 0.661 ± 0.013; to RDGGVHVFATLM, 0.626 ± 0.018; to RDGHGRHGRGER, 0.634 ± 0.024.
In the case of RDLGGECARQVG, the protein stability index was found to be 0.7 ± 0.04.
The sequence RDMVSPLPLPLL had a protein stability index of 0.613 ± 0.11.
Take RDNKTHSKRAYG: the protein stability index is 0.648 ± 0.024.
Next, RDRFSWGRRSDN: 0.696 ± 0.041; RDRVSASILVLP: 0.6892 ± 0.0056.
In the case of REENIKSKCRKI, the protein stability index was 0.742 ± 0.021.
Regarding REGGEIGDQEGT, the protein stability index is 0.674 ± 0.069.
As for REKERKRGKAVK, the protein stability index is 0.698 ± 0.019.
Next, RERASCHSHTNS: 0.675 ± 0.013; RERKEVGRRRIG: 0.604 ± 0.022.
RESSAYPPPGEG gave a protein stability index of 0.6551 ± 0.005.
Consider RESTGRDQRGIV, for which the protein stability index is 0.673 ± 0.018.
Sequence RESVLRVGCFQP gave a protein stability index of 0.742 ± 0.072.
With RFCGSGPIVPGQ, the protein stability index was found to be 0.707 ± 0.019.
For RFETKERGIREK, the protein stability index came out at 0.719 ± 0.014.
To RFGCGRRGQWMR belongs 0.722 ± 0.06; to RFGHLLRFSWLL, 0.6477 ± 0.0057; to RFGLIFTSPHPL, 0.63 ± 0.013.
RFLEKNKKVIDK yielded a protein stability index of 0.742 ± 0.037.
RFLVFLLNFISI showed a protein stability index of 0.564 ± 0.037.
Sequence RFMDPFSGITAF gave a protein stability index of 0.716 ± 0.018.
RFVGVGWRVEGG came in with a protein stability index of 0.676 ± 0.019.
As for RGALGGGSNRLA, the protein stability index worked out at 0.788 ± 0.26.
Consider RGARWRAGIGRG, for which the protein stability index came out at 0.739 ± 0.088.
For RGCGRLDGRRGG, the protein stability index amounted to 0.704 ± 0.015.
The sequence RGCTVHSLNSSY gave a protein stability index of 0.6757 ± 0.0022.
In the case of RGCVKQGLYCVL, the protein stability index was found to be 0.679 ± 0.044.
Regarding RGDIQASKRIHL, the protein stability index is 0.752 ± 0.046.
The sequence RGDVGVGHWVGG came in with a protein stability index of 0.708 ± 0.0093.
RGEGLRYVQGSR had a protein stability index of 0.668 ± 0.042.
RGFWRGGVVRGG showed a protein stability index of 0.73 ± 0.021.
RGGGRGGRPRMC registered a protein stability index of 0.607 ± 0.085.
